Assay results reported in paper PMC3569440, “Recombinant Production of Human Aquaporin-1 to an Exceptional High Membrane Density in Saccharomyces cerevisiae” (PLoS ONE, 2013).
“And” between values parts separate entries of the source, which are not always exact repeats. Identical values can stand only once.

Target: the molecule itself
Assay: SEC; fluorescence-detection size-exclusion chromatography (FSEC); crude membranes (2 mg/ml) solubilized in CYMAL-5 or DDM at a detergent:protein ratio of 3, 50 mM phosphate pH 7.5, 10 mM imidazole, 500 mM NaCl, 4°C; Superose 12 10/300 GL; GFP fluorescence of fractions

B1: human Aquaporin-1 C-terminally tagged with yeast enhanced GFP and eight histidines (hAQP1-GFP-8His) (natural protein, UniProt P29972 1-269, looked up)
chain: MASEFKKKLFWRAVVAEFLATTLFVFISIGSALGFKYPVGNNQTAVQDNVKVSLAFGLSIATLAQSVGHISGAHLNPAVTLGLLLSCQISIFRALMYIIAQCVGAIVATAILSGITSSLTGNSLGRNDLADGVNSGQGLGIEIIGTLQLVLCVLATTDRRRRDLGGSAPLAIGLSVALGHLLAIDYTGCGINPARSFGSAVITHNFSNHWIFWVGPFIGGALAVLIYDFILAPRSSDLTDRVKVWTSGQVEEYDLDADDINSRVEMKPK
notes: human Aquaporin-1 (hAQP1), 269 amino acids; coding part of the cDNA without a translational stop codon, fused in frame to yeast enhanced GFP and eight histidines; not N-glycosylated in yeast; Order on the chain: hAQP1, yEGFP, 8 His; also called hAQP1-GFP-His8; Aquaporin-1-GFP; source: S. cerevisiae PAP1500 (plasmid pPAP8230), crude membranes solubilized in CYMAL-5 or DDM; also purified (CYMAL-5, …)
  stoichiometry N: 4 and > 4
